Assay results as given in a protein production outcome set (Wang et al. 2014).

Assay: label from the status in PepcDB records

Sequence	protein production
MQTWQQLYSPLGSLGLSALAAVIPIVFFFLALAVFRLKGHVAGSITLALSILVAIFAFQMPADMALAAAGYGFAYGLWPIAWIIVAAVFLYKLTVKSGQFEIIRSSVLSITDDQRLQVLLIGFCFGAFLEGAAGFGAPVAITAALLVGLGFNPLYAAGLCLIANTAPVAFGALGIPIIVAGQVTGIDAFKIGAMTGRQLPLLSLFVPFWLVFMMDGMRGVKETWPAALVAGLSFAVTQYFTSNFIGPELPDITSALASLISLTLFLKIWQPKRTAGAQIAGATSSAAITASAGGFGQPRQTQASPYSLGQIFKAWSPFLILTVLVTIWTLKPFKAMFAAGGSMYGWVFNFAIPHLDQLVIKMAPIVTTPTAIPAVFKLDPISATGTAIFFSALISMLLLKIDFKTGLTTLKETFYELRWPILSIGMVLAFAFVTNYSGMSSTMALVLAATGAAFPFFSPFLGWLGVFLTGSDTSSNALFSSLQATTAHQIGVNDTLLVAANTSGGVTGKMISPQSIAVACAATGLVGKESDLFRFTLKHSLFFATIVGLITLAQAYWFTGMLVH	failed
MQVEREENRKEVYEMKKETTGSKKVENGMEQEILNGQQPHWEKVFSNTCSRFGDEPSYPARKAAAIFEKEGKKKILELGGGQGRDTCFFASRGFSVHSLDYTESGTKAMKEKAEESGFGKYVTALRHDARNPLPFEAETFDACYSHMLYCMALTTDELEFLCKEIKRVLKPGGINIYTARHTGDAHYGTGTHRGEDMYEIAGGFIVHFFSREKVENLAKEYGSFELEEFEEGELPRKLYMVTMRK	failed
MQVPKVTLNNGVEMPILGYGVFQIPPEKTEECVYEAIKVGYRLIDTAASYMNEEGVGRAIKRAIDEGIVRREELFVTTKLWVSDVGYESTKKAFEKSLKKLQLEYIDLYLIHQPFGDVHCAWKAMEEMYKDGLVRAIGVSNFYPDRLMDLMVHHEIVPAVNQIEIHPFYQRQEEIEFMRNYNIQPEAWGPFAEGRKNIFQNGVLRSIAEKYGKTVAQVILRWLTQKGIVAIPKTVRRERMKENISIFDFELTQEDMEKIATLDEGQSAFFSHRDPEVVKWICSLKR	not failed
MQVQELVGIVPWNFIATICNLFIQVYLIKRFLFKPVNEMLEKRRAKADAEIQDAVKAKEEAEVMKAEYEKNMQEAKEKANDIVLTAQKTAAVQSEEMLKEASSQVTAMKEKAEKDIAQERRKAVNEIKGEIGGMAVEIAGKVIEREINEEDHTKLINDFIENVGEAS	not failed
MQVRAVFFARLRREVGLEELTLDVPDGADVRAVAEHLEQERGVSLRGCMVAVNETYASPEHLLREGDEVAFLPPVAGGAPEDEADADTHCRVTADPLSLSEADAFLVKPEYGAQAYFMGTVRSPNQGQVVEYIDYEAFAPMAEKVMREAAALARERHGELRVWIEHRTGRLTPAVASIVIGVASPHRRPALEACDFLIEHLKIELPIWKHEADGRGEHWVKGTTGHDTL	failed
MQWPPPWRRSPLVSATPPPGPTRGLLCPRRVSEAGDSSTEGARTGHSHYVTPAESAMEGRSQPLPSLRPASPTNAPAHGRGSDCTAKEPPLANVCRQNYGAAQDPVELAGRRSASHVTGSSLGKAEVACGRRWRWAELLADTSWSPAGRATEMKVKMLSRNPDNYVRETKLDLQRVPRNYDPALHPFEVPREYVRALNATKLERVFAKPFLASLDGHRDGVNCLAKHPEKLATVLSGACDGEVRIWNLTQRNCIRTIQAHEGFVRGICTRFCGTSFFTVGDDKTVKQWKMDGPGYGDEEEPLHTILGKTVYTGIDHHWKEAVFATCGQQVDIWDEQRTNPICSMTWGFDSISSVKFNPIETFLLGSCASDRNIVLYDMRQATPLKKVILDMRTNTICWNPMEAFIFTAANEDYNLYTFDMRALDTPVMVHMDHVSAVLDVDYSPTGKEFVSASFDKSIRIFPVDKSRSREVYHTKRMQHVICVKWTSDSKYIMCGSDEMNIRLWKANASEKLGVLTSREKAAKDYNQKLKEKFQHYPHIKRIARHRHLPKSIYSQIQEQRIMKEARRRKEVNRIKHSKPGSVPLVSEKKKHVVAVVK	failed
MQYSSFGEKFNRYSGITQLMDDLNDGLRTPGAIMLGGGNPAAIPAMLDYFHNTSAEMLADGSLLNAMTNYDGPQGKDVFVKSLATLLRETYGWNISEKNITLTNGSQSGFFYLFNLFAGKQPDGAHKKILLPLAPEYIGYGDAGIDDDIFVSYRPEIELLDQGLFKYHVDFSELKVDESVAAICVSRPTNPTGNVLTEEEIHKLDQLARDNGVPLIIDNAYGVPFPNIIFEDIEPFWNDNTILCMSLSKLGLPGLRCGIVIANEAVTQALTNMNGIISLAPGSMGPALVQRMIEKGDLLRLSEQVIKPFYRQKAQHAVELLQSAITDPRFRIHKPEGAIFLWLWFDELPITTMELYQRLKARGVLIVPGEYFFIGQPQEWPHAHECLRMNYVQNEQAMEQGIAIIAEEVQKAYQQANV	failed
MRAGSGQCTGAAMDRLTEMEAFAMVVDQGGFTDAARKMGISKSAVSKHVSALEARLGARLLNRTTRRVSPTEIGLAYYDRARRVLTDAGEADALVTSMQTAPSGHLRLSVATDFGVALLAPILAEFLLDYPDITVTMVLNNRSVELISEGFDMAIRVGDLEDSSLRARKLTETTRRMIASPGYLQRHGRPMKIDDLTDHRLLYHSTQAHGNVWRLLSPSGEPRQVRAPGFLTVNDGHSLLKAAVSGLGIAHLPEFLFAEAMRAGLVEEVLPDLPVETLGIHAIYPAGRFTQPKVRAFIDFLVRRFLEKGPIGN	failed
MRAIAIVLARSSSKRIKNKNIIDFFNKPMLAYPIEVALNSKLFEKVFISSDSMEYVNLAKNYGASFLNLRPKILADDRATTLEVMAYHMEELELKDEDIACCLYGASALLQEKHLKNAFETLNKNQNTDYVFTCSPFSASPYRSFSLENGVQMAFKEHSNTRTQDLKTLYHDAGLLYMGKAQAFKEMRPIFSQNSIALELSPLEVQDIAHFRRFRISQAQIQPFEKRMPVKILCDCFLTSGLGHVRRCEKILSFIEKLGVEASLYLHKQNNISAFLEGVGGNDFLITDSYCLNSKDFYLLKEKAKSLMVIEDTEHAKGFYPKNTKILNFTLNALKHYHHLSKDYQYYLGVGFYPVDARFIYDRPINTENKEVLITLGGSEQKTLKEIVKILENKNVNLHIISPYTPKNPPKNTHYYSPLNPLEFSSLMKSCACAISAAGQTLYELALSQTPSLILPIASNQIIQSKEFESLGIFKQTSLKTLAKDFENLQIQKNQAWAKNLVFGDKLEGALREFLEI	failed
MRALALICVVWVCWRESCARHGTEDSSESGLRYAYTLVVDGTANTRRCFGTGHVDGEAFVGYSNNKTHGIGRWVNASHVEEENKEFVRQCKELQAELDKMQNNSKVIGVKTVQLDVGCTSKIEKHYAYDGNETEDDTATSASERDRDCQKKLTEYRKLVLASAVSPQLEVERRSSGREGGMRLRCFARDYYPADLEIRWWKDDGGGGALPQTSKQHHDPLPSGNGLYQKHIDVYVDGGLEHVYSCRVKGIATGLELQIVRWKGYARGAGNSVVLLALFIPASVMAAVVVGSVLIRKKSKEQRKTRRRFGRRSGHEPKRPSYQVKRRAEPPCDLPMTIWFRGDNVMSTQVEACPAYAVTMSARELSDAWSNGDGPIVTVPDPSI	not failed
MRAPLSTYRRPQRTDFVTPTGGPFFAKQDKALNTIDLKMAHDLKLRGYRVKVAVVDEGVRSDHPLLNVEKKYGGDYMADGTRTYPDPKRQGRHGTSVALVLAGQDTDTYRGGVAPNADLYSANIGTRAGHVSDEAAFHAWNDLLGHGIKIFNNSFATEGPEGEQRVKEDRNEYHSAANKQNTYIGRLDRLVRDGALLIFAAGNGRPSGRAYSEVGSVGRTPRVEPHLQRGLIVVTAVDENGRLETWANRCGQAQQWCLAAPSTAYLPGLDKDNPDSIHVEQGTSLSAPLVTGAAVLVQDRFRWMDNDNLRTTLLTTAQDKGPYGVDPQYGWGVLDVGRAVQGPAQFAFGDFVARVTDTSTFGLEHHHHHH	failed
MRASQSAIFRRIDPFAILSFTIPLAVYLLTLAPSVTFFDSGEFITAIHSLGTAHSPGYPLFVNYGKPFTWLPFGNIAFRVNIATAVSASAACFAVYFLTHYLLKREELVPDLRFSDTFARLCGLAAALAFAFSARLWLQSNHDKPYPLVAFMTAMVFYLLVTWRERYDEGEMRPSHIYLGAFICGLATGAHQTIVLMLPAYAWLILSKNWRLAARVKELALTVAFGLMGFAIQLHMPIRAMRNPLLNWGDPRTLDLFLWNFLRKGYPVEPPDRNLALAWQQLSAFNLPREFTWVGLVLLLVGIGAFFTRRRDEIIAYLLAIVCSLLVIVGYFNTPGDLIFLTEEFFTPIYLLSAVFIGLGLFTLLRLALRNNPVEKLRTVPIKLMAGLLLLVLPSAICAMNYYENDQHENYVAFDYATNTLRSLSPGAVLFTWGDSGAFPLWYLQGVERMREDLDLLHTPHLVFDWYLDAFPHLFGRSVLRTMPERRQSSEVALKLAVAEQIVSRPVFIDFSTRYSLPFAEYGLKQRGICYQLINDGGSVLRPPDLAVWRLYASRGYTSQMGFRDLDTGKAILIYASCRMEAGEILLRMGYRQQGAEELSAAAAIAPELRAQVEQVLAAYGAR	failed
MRASTLLIIAGMFIVSLYALIEVSFYSSQVTVHRPDVRAPVIEVPSINLTETINNRSVFYGVYHEPMSYPPGNRTVILFGHRTLYGSPFLHLDKLRAGDSVYLNWPGVGFAEYRVNRSFIVPASYQMPVNQGAKLFLITCHPLGSTRERLIVECHLEGIRPYQRNVRVDNPKSYYSIPIILGFLSAGLLVTRFYPVEEDRRFLLAAVIGLTVFLVLGYLFPIPPEFISDKLMEFNNILGI	failed
MRATEDHTIFDRGVGQRDQLQRLWTPYRMNYLAEAPVKRDPNSSASPAQPFTEIPQLSDEEGLVVARGKLVYAVLNLYPYNPGHLMVVPYRRVSELEDLTDLESAELMAFTQKAIRVIKNVSRPHGFNVGLNLGTSAGGSLAEHLHVHVVPRWGGDANFITIIGGSKLEHHHHHH	failed
MRDALHVTADDADATDDAIPDSRETGVTGVVLAGGLSTRLGHDKAVIRLHGEQGPDLLVRTAALLEPLVDEVWISCRPGRCVTGPYLRIYDEVQGLGPFGGVMTALRAAQGPVLVLSCDLPFMERTLLERLLERRGARHPEALMTTFRQEETGFIESLVAVYEYACLPFFEDALTDGVHKLSRVIPAERREDIVYTQNEALPFFNVNYPADLEMARRIIGALLEHHHHHH	failed
MRDALLGALDAGAVCVNVDLAHAGQQAKLEPDTPYGDALGVGAGRNWAHVNSIAYDAKDDSIILSSRHQGIVKIGRDKQVKWILAPSKGWNKQLASKLLKPVDDHGKPLTCDENGKCKDTDFDFTYTQHTAWLSSKGTLTVFDNGDGRGLEQPALPTMKYSRFVEYKIDEKKGTVQQVWEYGKERGYDFYSPITSVVEYQKDRDTMFGFGGSINLFDVGKPTVGKLNEIDYKTKEVKVEIDVLSDKPNQTHYRALLVHPTQMFKLEHHHHHH	not failed
MRDEAGSRGIVMQNASANALVPREAARAAPMADIQKIAQHMARLNVAALPRNYELFHEAIIGLNAGLAQDIAALGSQPQQPMLDELGLKYRLAGHCGLAGETSRNEASRMLRDVAERLAEGLRHKNAFARACGTILKSVSGQNDQSLAAFLSEIDYLTASLSTVLAAEMEIGAKLQDDIKTLETLERGISAMQSAAIADRITGLPNRIALNRTIADLYERQEGAAGSALIMVDIDNFTDLNDKYGTQAGNKLLKKLAGLLQKSIKKNDFVARTEGDEFALLFSNVGMQDAIAIAERLRASVEDNLVFATSDKTDRGRLTISIGVALSTDAATPGQLQANARVALLAAQSNPRLPVQAFGR	failed
MRDILFIYLLTLGIKLYAYFLSGFTAILADAFHSVIDITMILILLLSERYAEKEADYQHPFGHEMARNVASLAVGVGFITFMFFELMKEGLLKVLHPASGYSNVEVALGAEVAVLALLVIAALISARRSGILNRTLLVESLNDSLSTLAAIVGVGLVWAGYPIFDGIATIAIAFIIFYNSFRLVRDNARLLIGMSPSEDFYRSVEDACLEIERVKGVHDMVGVYTGENSVHLDLHVTVDGAMTIEEADKLSVEIAEAIMAKHPEVKHISVHFCPHDGRRRKLY	failed
